Tests used:
[1] = molecular target: recombinant human VEGF165 (human, UniProt P15692 207-395); experiment: cell-based or functional assay
[2] = molecular target: recombinant human PDGF-BB (human, UniProt P01127 82-190); experiment: cell-based or functional assay
[3] = molecular target: T1, recombinant human PDGF-BB (human, UniProt P01127 82-190, biotin-labelled in the binding and competition ELISAs (sites not given)); experiment: cell-based or functional assay
[4] = molecular target: T1, recombinant human PDGF-BB; experiment: Biacore SPR, antibody captured by anti-human Fc, PDGF-BB injected
Method: For example, approximately 9000 RU of goat anti-human Fc specific polyclonal antibody (Thermo Fisher Scientific Inc., Rockford, Ill.) diluted in 10 mM sodium acetate (pH 4.5) is directly immobilized across a CM5 research grade biosensor chip using a standard amine coupling kit according to manufacturer's instructions and procedures at 25 μg/ml. Unreacted moieties on the biosensor surface were blocked with ethanolamine. For kinetic analysis, rate equations derived from the 1:1 Langmuir binding model were fitted simultaneously to multiple antigen injections (using global fit analysis) with the use of Scrubber 2 (BioLogic Software), Biacore Biaevaluation 4.0.1 software or Biacore T100 Evaluation software. Purified antibodies or DVD-Ig molecules were diluted in running buffer for capture across goat anti-human Fc reaction surfaces. Antibodies or DVD-Ig molecules to be captured as a ligand (1 μg/ml) were injected over reaction matrices at a flow rate of 10 μl/minute. During the assay, all measurements were referenced against the capture surface alone (i.e., with no captured antibody or DVD-Ig molecule). […] The equilibrium dissociation constant KD (M) of the reaction between antibodies and the target antigen was then calculated from the kinetic rate constants by the following formula: KD=Koff/Kₒₙ. Binding was recorded as a function of time and kinetic rate constants were calculated.

Sequence of recombinant human VEGF165 (P15692 other isoform, or with tags, fused parts or gaps limits assumed): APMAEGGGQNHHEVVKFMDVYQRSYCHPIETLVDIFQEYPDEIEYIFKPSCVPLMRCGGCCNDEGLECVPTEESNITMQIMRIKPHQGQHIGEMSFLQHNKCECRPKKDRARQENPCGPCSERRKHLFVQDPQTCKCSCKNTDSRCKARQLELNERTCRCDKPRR
Sequence of recombinant human PDGF-BB (human, UniProt P01127 82-190) (P01127 82-190 limits assumed): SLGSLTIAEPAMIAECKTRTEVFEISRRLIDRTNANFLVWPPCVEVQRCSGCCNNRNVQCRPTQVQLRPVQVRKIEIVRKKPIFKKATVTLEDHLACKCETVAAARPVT
T1 sequence (P01127 82-190 limits assumed): as above

Potency IC50 (nM), HMVEC-d hVEGF165 (proliferation) [1] | Potency IC50 (nM), NIH-3T3 hPDGF-BB (proliferation) [2] | huPDGF-BB Neutralization Potency (nM) in NIH-3T3 Cells [3] | Binder | further results
0.133 nM | 0.394 nM | – | 3E2.1_GS_9E10.1 (PR-1612500) (bispecific antibody, human IgG1, kappa, L234A L235A) heavy: EVQLVQSGAEVKKPGSSVKVSCKASGYTFTESYMYWVKQAPGQGLELIGRIDPEDGSTDYVEKFKNKATLTADKSTSTAYMELSSLRSEDTAVYFCARFGARSYFYPMDAWGQGTTVTVSSGGGGSGGGGSEIQLVQSGSELKKPGASVKVSCKASGYTFTNYGMYWVKQAPGQGLEYMGWIDTETGRPTYADDFKGRFVFSLDTSVSTAYLQISSLKAEDTAVYFCARWSGDTTGIRGPWFAYWGQGTLVTVSSASTKGPSVFPLAPSSKSTSGGTAALGCLVKDYFPEPVTVSWNSGALTSGVHTFPAVLQSSGLYSLSSVVTVPSSSLGTQTYICNVNHKPSNTKVDKKVEPKSCDKTHTCPPCPAPEAAGGPSVFLFPPKPKDTLMISRTPEVTCVVVDVSHEDPEVKFNWYVDGVEVHNAKTKPREEQYNSTYRVVSVLTVLHQDWLNGKEYKCKVSNKALPAPIEKTISKAKGQPREPQVYTLPPSREEMTKNQVSLTCLVKGFYPSDIAVEWESNGQPENNYKTTPPVLDSDGSFFLYSKLTVDKSRWQQGNVFSCSVMHEALHNAYTQKSLSLSPGK light: ETVLTQSPATLSLSPGERATLSCRASESVSTLMHWYQQKPGQQPRLLIYGASNLESGVPARFSGSGSGTDFTLTISSLEPEDFAVYFCQQSWNDPWTFGGGTKVEIKGGSGGGGSGGDIRMTQSPSSLSASVGDRVTIECLASEDIYSDLAWYQQKPGKSPKLLIYNANGLQNGVPSRFSGSGSGTDYSLTISSLQPEDVATYFCQQYNYFPGTFGQGTKLEIKRTVAAPSVFIFPPSDEQLKSGTASVVCLLNNFYPREAKVQWKVDNALQSGNSQESVTEQDSKDSTYSLSSTLTLSKADYEKHKVYACEVTHQGLSSPVTKSFNRGEC | –
0.188 nM | 0.377 nM | – | 3E2.1_GS_9E10.6 (PR-1612501) (bispecific antibody, human IgG1, kappa, L234A L235A) heavy: EVQLVQSGAEVKKPGSSVKVSCKASGYTFTESYMYWVKQAPGQGLELIGRIDPEDGSTDYVEKFKNKATLTADKSTSTAYMELSSLRSEDTAVYFCARFGARSYFYPMDAWGQGTTVTVSSGGGGSGGGGSEVQLVQSGAEVKKPGSSVKVSCKASGYTFTNYGMYWVRQAPGQGLEWMGWIDTETGRPTYADDFKGRFTFTADKSTSTAYMELSSLRSEDTAVYYCARWSGDTTGIRGPWFAYWGQGTLVTVSSASTKGPSVFPLAPSSKSTSGGTAALGCLVKDYFPEPVTVSWNSGALTSGVHTFPAVLQSSGLYSLSSVVTVPSSSLGTQTYICNVNHKPSNTKVDKKVEPKSCDKTHTCPPCPAPEAAGGPSVFLFPPKPKDTLMISRTPEVTCVVVDVSHEDPEVKFNWYVDGVEVHNAKTKPREEQYNSTYRVVSVLTVLHQDWLNGKEYKCKVSNKALPAPIEKTISKAKGQPREPQVYTLPPSREEMTKNQVSLTCLVKGFYPSDIAVEWESNGQPENNYKTTPPVLDSDGSFFLYSKLTVDKSRWQQGNVFSCSVMHEALHNAYTQKSLSLSPGK light: ETVLTQSPATLSLSPGERATLSCRASESVSTLMHWYQQKPGQQPRLLIYGASNLESGVPARFSGSGSGTDFTLTISSLEPEDFAVYFCQQSWNDPWTFGGGTKVEIKGGSGGGGSGGDIRMTQSPSSLSASVGDRVTITCLASEDIYSDLAWYQQKPGKSPKLLIYNANGLQNGVPSRFSGSGSGTDYTLTISSLQPEDVATYFCQQYNYFPGTFGQGTKLEIKRTVAAPSVFIFPPSDEQLKSGTASVVCLLNNFYPREAKVQWKVDNALQSGNSQESVTEQDSKDSTYSLSSTLTLSKADYEKHKVYACEVTHQGLSSPVTKSFNRGEC | –
– | – | 1.84 nM | chBDI-9E8 half-body (antibody, V domains shown) VH: QVTLKESGPGILQPSQTLSLTCTFSGFSLSTYGMGVGWIRQPSGKGLEWLANIWWDDDKYYNPSLKNRLTISKDTSNNQAFLKITNVDTADTATYYCARIESIGTTYSFDYWGQGVMVTVSS VL: QFTLTQPKSVSGSLRSTITIPCERSSGDIGDSYVSWYQQHLGRPPINVIYADDQRPSEVSDRFSGSIDSSSNSASLTITNLQMDDEADYFCQSYDINIDIVFGGGTKLTVL | –
– | – | > 10 nM | chBDI-5H1 half-body (antibody, V domains shown) VH: QVTLKESGPGILQPSQTLSLTCTFSGFSLSTFGMGVGWIRQPSGKGLEWLANIWWDDDKYYNPSLKNRLTISKDTSNSQAFLEITNVDTADTATYYCARISTGISSYYVMDAWGQGASVTVSS VL: QFTLTQPKSVSGSLRSTITIPCERSSGDIGDTYVSWYQQHLGRPPINVIYGNDQRPSEVSDRFSGSIDSSSNSASLTITNLQMDDEADYFCQSYDSDIDIVFGGGTKLTVL | –
– | – | > 10 nM | chBDI-1E1 half body (antibody, V domains shown) VH: EVKLQQSGDELVRPGASVKMSCKASGYTFTDYVMHWVKQSPGQGLEWIGTIIPLIDTTSYNQKFKGKATLTADKSSNTAYMELSRLTSEDSAVYYCARTSPYYYSSYDVMDAWGQGASVTVSS VL: NIQLTQSPSLLSASVGDRVTLSCKGSQNINNYLAWYQQKLGEAPKLLIYKTNNLQTGIPSRFSGCGSGTDYTLTISSLHSEDLATYYCYQYDNGYTFGAGTKLELK | –
1.78 nM | 0.187 nM | – | 3E2.1_GS_1B10.1 (PR-1612502) (bispecific antibody, human IgG1, kappa, L234A L235A) heavy: EVQLVQSGAEVKKPGSSVKVSCKASGYTFTESYMYWVKQAPGQGLELIGRIDPEDGSTDYVEKFKNKATLTADKSTSTAYMELSSLRSEDTAVYFCARFGARSYFYPMDAWGQGTTVTVSSGGGGSGGGGSEVQLVESGGGLVQPGGSLRLSCAASGFSFSKYDMAWFRQAPGKGLEWVASITTSGVGTYYRDSVKGRFTVSRDNAKSTLYLQMNSLRAEDTAVYYCARGYGAMDAWGQGTTVTVSSASTKGPSVFPLAPSSKSTSGGTAALGCLVKDYFPEPVTVSWNSGALTSGVHTFPAVLQSSGLYSLSSVVTVPSSSLGTQTYICNVNHKPSNTKVDKKVEPKSCDKTHTCPPCPAPEAAGGPSVFLFPPKPKDTLMISRTPEVTCVVVDVSHEDPEVKFNWYVDGVEVHNAKTKPREEQYNSTYRVVSVLTVLHQDWLNGKEYKCKVSNKALPAPIEKTISKAKGQPREPQVYTLPPSREEMTKNQVSLTCLVKGFYPSDIAVEWESNGQPENNYKTTPPVLDSDGSFFLYSKLTVDKSRWQQGNVFSCSVMHEALHNAYTQKSLSLSPGK light: ETVLTQSPATLSLSPGERATLSCRASESVSTLMHWYQQKPGQQPRLLIYGASNLESGVPARFSGSGSGTDFTLTISSLEPEDFAVYFCQQSWNDPWTFGGGTKVEIKGGSGGGGSGGDIQMTQSPSSLSASVGDRVTITCKASQDIDDYLSWYQQKPGKSPKLVIYAATRLADGVPSRFSGSGSGTDYTLTISSLQPEDFATYYCLQSSSTPWTFGGGTKVEIKRTVAAPSVFIFPPSDEQLKSGTASVVCLLNNFYPREAKVQWKVDNALQSGNSQESVTEQDSKDSTYSLSSTLTLSKADYEKHKVYACEVTHQGLSSPVTKSFNRGEC | –
– | – | 0.099 nM | chBFU-3E2-B9-B8 (antibody, human IgG1, V domains shown) VH: EVQLQQSGPELQRPGASVKLSCKASGYTFTESYMYWVKQRPEQSLELIGRIDPEDGSTDYVEKFKNKATLTADTSSNTAYMQLSSLTSEDSATYFCARFGARSYFYPMDAWGQGTSVTVSS VL: DTVLTQPPALAVSPGERVSISCRASESVSTLMHWYQQKPGQQPRLLIYGASNLESGVPARFSGSGSGTDFTLTIDPVEADDTATYFCQQSWNDPWTFGGGTKLELK | Kd [4]: ≤ 0.019 nM; koff [4]: 0.00019 s⁻¹; kon [4]: ≥ 1e+07 M⁻¹ s⁻¹
– | – | 0.086 nM | chBFU-11A8-D6-C3 (antibody, human IgG1, V domains shown) VH: EVQLQQSGPELQRPGASVKLSCKASGYTFTESYIYWVKQRPEQSLELIGRIDPEDGSTDYVEKFKNKATLTADTSSNTAYMQLSSLTSEDTATYFCARFGARSYFYPMDAWGQGTSVTVSS VL: DTVLTQSPTLAVSPGERVSIPCRASESVSTLMHWYQQKPGQQPRLLIYGASNLESGVPARFSGSGSGTDFTLTIDPVEADDTATYFCQQSWNDPWTFGGGTKLELK | Kd [4]: ≤ 0.015 nM; koff [4]: 0.00015 s⁻¹; kon [4]: ≥ 1e+07 M⁻¹ s⁻¹
– | – | 2.49 nM | chBFU-3E2 half-body (antibody, V domains shown) VH: EVQLQQSGPELQRPGASVKLSCKASGYTFTESYMYWVKQRPEQSLELIGRIDPEDGSTDYVEKFKNKATLTADTSSNTAYMQLSSLTSEDSATYFCARFGARSYFYPMDAWGQGTSVTVSS VL: DTVLTQPPALAVSPGERVSISCRASESVSTLMHWYQQKPGQQPRLLIYGASNLESGVPARFSGSGSGTDFTLTIDPVEADDTATYFCQQSWNDPWTFGGGTKLELK | –
– | – | > 10 nM | chBFU-11A8 half-body (antibody, V domains shown) VH: EVQLQQSGPELQRPGASVKLSCKASGYTFTESYIYWVKQRPEQSLELIGRIDPEDGSTDYVEKFKNKATLTADTSSNTAYMQLSSLTSEDTATYFCARFGARSYFYPMDAWGQGTSVTVSS VL: DTVLTQSPTLAVSPGERVSIPCRASESVSTLMHWYQQKPGQQPRLLIYGASNLESGVPARFSGSGSGTDFTLTIDPVEADDTATYFCQQSWNDPWTFGGGTKLELK | –

Reference: US20170015742A1 (published 2017)
